The record followed here is the nanobody polyreactivity screen of Harvey et al. (2022).

This data set is described as follows: yeast display, Sf9 membrane polyspecificity reagent, FACS + sequencing; frameworks hold sequencing errors. In a few lines: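 Galactose induction of a Saccharomyces cerevisiae BJ5465 synthetic nanobody display library ran 36–48 hours. The cells were then stained for 1 hour at 4 °C with 10% biotinylated, detergent-solubilized Sf9 membrane reagent, pulled down on streptavidin microbeads and FACS-sorted into low and high (top ~1%) gates on expression and reagent-binding fluorescence. Labels for polyreactivity follow the gate of origin.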
As for “QVQLVESGGGLVQAGGSLRLSCAASGRIFTRNAMGWYRPAPGKERELVAAISSRGGSTYYADSVKGRFTISRDNAKNTVYLQMNSLKPEDTAVYYCAAGYWATYDYWGQGTQVTVSS”, the “polyreactivity (PSR sort gate)” value is reported as “high polyreactivity”.

Turning to “QVQLVESGGGLVQAGGSLRLSCAASGRIFTRNAMGWYRQAPGKERELVAAISNGGRTNYADSVKGRFTISRDNAKYTVYLQMNSLKPEDTAVYYCNARYLPRSTIYDYWGQVTQVTVSS”, the “polyreactivity (PSR sort gate)” value is given as “high polyreactivity”.

“QVQLVESGGGLVQAGGSLRLSCAASGRIFTRNAMGWYRQAPGKERELVAAISRSGGSTYYADSVKGRFTISRDNAKNTVYLQMNSLKPEDTAVYYCAKRGYDNYPFYYWGQGTQVTVSS”: the “polyreactivity (PSR sort gate)” value was “high polyreactivity”.

For the sequence “QVQLVESGGGLVQAGGSLRLSCAASGRIFTRNTMGWYRQAPGKERELVAAITSRGGSTYYADSVKGRFTISRDNAKNTVYLQMNSLKPEDTAVYYCAADKPRSYYYWGQGTQVTVSS”, the “polyreactivity (PSR sort gate)” value was “high polyreactivity”.

Regarding “QVQLVESGGGLVQAGGSLRLSCAASGRIFTRYALGWYRHADGKVRELVATISRGGNTNYADSVKGRFTISRDNANNTVYLQMTSLKPEDTAVYYCAKYPVSRVGGYGYWGQGTQVTVSS”, the “polyreactivity (PSR sort gate)” value is “low polyreactivity”.

As for “QVQLVESGGGLVQAGGSLRLSCAASGRIFTRYAMGWYRQAPGKERELVATITKSGGSTYYADSVKGRFTISRDNAKNTVYLQMNSLKPEDTAVYYFAADSWWTYQYDYWGQGTQVTVSS”, the “polyreactivity (PSR sort gate)” value is “low polyreactivity”.

As for “QVQLVESGGGLVQAGGSLRLSCAASGRIFTRYTMGWYRQAPGKESELVAAISRSGGSTYYADSVKGRFTISRDNEKNTVYLQMNSLKPEDTAVYYCAAKGPYTYGYGYWGQGTQVTVSS”, the “polyreactivity (PSR sort gate)” value is listed as “high polyreactivity”.

As for “QVQLVESGGGLVQAGGSLRLSCAASGRIFTSNAMGWYRQAPGKEREFVAAITKRGGRTYYADSVKGRFTISRDNAKNTVYLQMNSLLPEDTAVYYCAAGATGTSYYGGDYWGQGTQVTVSS”, the “polyreactivity (PSR sort gate)” value is “high polyreactivity”.

On to “QVQLVESGGGLVQAGGSLRLSCAASGRIFTSNAMGWYSQAPGKERELVAAITKSGGSTYYADSVKGRFTISRDNAKNTVYLQMNSLKPEVTAVYYCSAYPTSRYKYEYWGQGNQVTVSS”, for which the “polyreactivity (PSR sort gate)” value is “high polyreactivity”.

On to “QVQLVESGGGLVQAGGSLRLSCAASGRIFTSNTMGWNRQAPGKERELGAAITSSGGYMYYADSVKGRFTISRDNAKNTGYLQMNSLKPEDTAVYYCAADTIGYHYWYDYWGQGTQVTVSS”, for which the “polyreactivity (PSR sort gate)” value is recorded as “low polyreactivity”.

As for “QVQLVESGGGLVQAGGSLRLSCAASGRIFTSYAMGWYRQAPGKERELVAAISSGGSTYYADSVKGRFTISRDNAKNTVYLQMNSLKPEDTAVYYCNAQSTRRYYYYWGQGTQVTVSS”, the “polyreactivity (PSR sort gate)” value is “high polyreactivity”.

Regarding “QVQLVESGGGLVQAGGSLRLSCAASGRIFTTNAMGWYRQAPGKERELVAAITYSGGTTYYADSVKGRFTISRDNAKNTVYLQMNSLKPEDTAVYYCAADVKFSTPYDYWGQGTQVTVSS”, the “polyreactivity (PSR sort gate)” value is recorded as “low polyreactivity”.

With “QVQLVESGGGLVQAGGSLRLSCAASGRIFTTYAMGWYRQAPGKERELVAAISRSGGSTYYADSVKGRFTISRDNAKNTVYLQMTSLNPEDTAVYYCAAVPTSNSFRSSFYYWGQGTQVTVSS”, the “polyreactivity (PSR sort gate)” value is “high polyreactivity”.

On to “QVQLVESGGGLVQAGGSLRLSCAASGRIFTTYAMGWYRQAPGKERELVASISWRVGSTYYADTVKGRFTISRDNAKITVYLQMNSLKPEETAVYYCAAVGGNYHASRLRYYWGQVTQVTVSS”, for which the “polyreactivity (PSR sort gate)” value is “low polyreactivity”.

In the case of “QVQLVESGGGLVQAGGSLRLSCAASGRIFTTYVMGCYRQAPGKERELVAAISWSGGNTYYADSVKGRFTISRDNAKNTVYLQMNSLKPEDTAVYYCNAVGTIREGDYWGQGTQVTVSS”, the “polyreactivity (PSR sort gate)” value is reported as “low polyreactivity”.

Consider “QVQLVESGGGLVQAGGSLRLSCAASGRIFTWNAMGWYRQAPGKERELVASISRSGTSTYYADSVKGRFTISRDNAKNSVYLQMNSLKAEDTAVYYCAAKRYGYKMYYWGQGTQVTVSS”, for which the “polyreactivity (PSR sort gate)” value is “high polyreactivity”.
